Our source for the Kd values is paper PMC9330073, “Cargo Recognition Mechanisms of Yeast Myo2 Revealed by AlphaFold2-Powered Protein Complex Prediction” (Biomolecules, 2022).

Assay [1] addresses T1, Myo2-GTD (globular tail domain of Myo2) (Saccharomyces cerevisiae (strain S288c), UniProt P19524 1152-1574).
T1 chain: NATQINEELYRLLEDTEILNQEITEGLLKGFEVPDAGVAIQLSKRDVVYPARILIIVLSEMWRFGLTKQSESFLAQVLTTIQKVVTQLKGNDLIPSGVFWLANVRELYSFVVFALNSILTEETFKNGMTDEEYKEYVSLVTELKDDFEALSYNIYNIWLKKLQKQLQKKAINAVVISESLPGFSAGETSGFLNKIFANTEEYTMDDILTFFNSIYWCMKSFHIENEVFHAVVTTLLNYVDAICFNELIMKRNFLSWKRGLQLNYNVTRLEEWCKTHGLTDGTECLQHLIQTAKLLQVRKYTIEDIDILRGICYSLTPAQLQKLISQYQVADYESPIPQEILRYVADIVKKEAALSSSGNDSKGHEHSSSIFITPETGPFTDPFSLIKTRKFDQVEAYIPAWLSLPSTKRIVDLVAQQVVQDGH
In words: ITC.

For the next assay, the target named is T2, Myo2-GTD Y1303A (Saccharomyces cerevisiae).
T2 chain: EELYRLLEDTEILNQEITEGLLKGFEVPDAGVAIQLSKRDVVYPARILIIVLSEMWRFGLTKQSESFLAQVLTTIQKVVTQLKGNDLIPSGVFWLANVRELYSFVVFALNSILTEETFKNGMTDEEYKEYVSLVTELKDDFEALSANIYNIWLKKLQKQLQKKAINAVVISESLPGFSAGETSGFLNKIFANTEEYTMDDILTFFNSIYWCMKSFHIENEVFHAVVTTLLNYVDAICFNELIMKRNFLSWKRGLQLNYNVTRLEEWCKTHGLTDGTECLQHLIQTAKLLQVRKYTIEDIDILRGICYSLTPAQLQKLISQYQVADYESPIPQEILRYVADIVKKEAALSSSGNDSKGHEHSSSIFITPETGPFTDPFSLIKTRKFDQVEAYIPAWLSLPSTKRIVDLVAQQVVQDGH
In words: ITC.

For another assay, the target named is T3, Myo2-GTD D1297N (Saccharomyces cerevisiae).
T3 chain: T2 chain with D140N, A146Y
In words: ITC.

Assay [2] concerns the target T4, Myo2-GTD (globular tail domain of Myo2) (Saccharomyces cerevisiae (strain S288c), UniProt P19524 1152-1574).
T4 construct: Myo2 (class V myosin), S. cerevisiae, C-terminal globular tail domain (GTD); Named Trx-Myo2-GTD in the light scattering experiment; also called Trx-Myo2-GTD; source: E. coli BL21(DE3), purified (Ni2+-NTA, size exclusion chromatography); not shown: Trx, N-terminal, kept
T4 sequence (looked up): T1 chain
The assay can be described thus: ITC; 500 μM Myo2-GTD in the syringe titrated into 50 μM Kar9-MIS or Pea2-MIS in the cell, 25 °C; one-site binding model. Conditions: both partners purified.

In the next assay the target is T5, Myo2-GTD L1331S (Saccharomyces cerevisiae (strain S288c)).
T5 chain: T2 chain with A146Y, L174S
In words: ITC.

The next assay concerns the target T6, Myo2-GTD W1407A (Saccharomyces cerevisiae (strain S288c)).
T6 chain: T2 chain with A146Y, W250A
In words: ITC.

The target in assay [3] is T4, Myo2-GTD (globular tail domain of Myo2). The assay can be described thus: ITC; 200 μM Vac17-MIS in the syringe titrated into 20 μM Myo2-GTD in the cell, 25 °C; one-site binding model. Conditions: both partners purified.

Where a chain is given by its changes, count along the chain named.

B1: GST-Pea2-CC1 (GST-tagged Pea2-CC1; dimer) (domain or fragment)
chain: AIQEEDSSKKLEELETAFSDLQLAHNFLTKQFENDRAEYVQDIEKLTRTNRELQDKLLNNHSNLSKTEKKLHELEQENKELEKANNKLNSSRH
modifications: N-terminal GST (pGEX-4T-1) left out; GST drives the dimerization
For B1, the Kd turned out to be 11 µM in assay [1], 11 µM with Myo2-GTD Y1303A and 10 µM in the assay with Myo2-GTD D1297N.

B2: Pea2-CC1 (Trx-tagged; monomer) (domain or fragment, Saccharomyces cerevisiae (strain S288c), UniProt P40091 235-327, looked up)
chain: B1 chain
notes: Pea2 (polarisome subunit), S. cerevisiae, conserved coiled coil CC1 containing residues 235-327; Named Trx-tagged in the light scattering; also called Trx-tagged Pea2-CC1; Pea2-CC1 monomer; source: E. coli BL21(DE3), purified (Ni2+-NTA, size exclusion chromatography); not shown: Trx, N-terminal, kept
For the molecule B2, the Kd in assay [2] is ~50 µM.

B3: Vac17-MIS (Myo2-interacting sequence of Vac17) (domain or fragment, Saccharomyces cerevisiae (strain S288c), UniProt P25591 112-157, looked up)
chain: PNEAPNDSPQSQSTRSSLGSFQPRPLKIIERQRLCMVTPSKPPKKS
notes: Vac17 (vacuole-related protein 17), S. cerevisiae, region containing residues 112-157 (MIS); Named Trx-tagged in the light scattering; also called Trx-Vas17-MIS; Vac17-MIS wild-type; source: E. coli BL21(DE3), purified (Ni2+-NTA, size exclusion chromatography); not shown: Trx, N-terminal, kept
Consider B3, for which the Kd is 0.41 µM with Myo2-GTD L1331S, 0.45 µM with Myo2-GTD W1407A and ~0.3 µM in assay [3].
